# Laboratory results: IntAct's records for PubMed 15047893
# B1: Serine/threonine-protein kinase TOUSLED (Arabidopsis thaliana (Mouse-ear cress)), Q39238 (parent)
# chain: MSDDMVLHFSSNSSNQSDHSLPDKIAKLEARLTGKTPSSAKPPQQQQQQQQQVSLWSSASAAVKVVTSTPPGLSETSISDSDDENTGDFLIRANTKKRQKVQESNNFSVVDHVEPQEAAYDGRKNDAESKTGLDVSKKKQGRGRASSTGRGRGSKTNNDVTKSQFVVAPVSAASQLDASDQKDFRPDGQLRNGECSLQDEDLKSLRAKIAMLEEELRKSRQDSSEYHHLVRNLENEVKDLKDQEQQGKQKTTKVISDLLISVSKTERQEARTKVRNESLRLGSVGVLRTGTIIAETWEDGQMLKDLNAQLRQLLETKEAIERQRKLLKKRQNGDKNDGTDTESGAQEEDIIPDEVYKSRLTSIKREEEAVLRERERYTLEKGLLMREMKRIRDEDGSRFNHFPVLNSRYALLNLLGKGGFSEVYKAYDLVDHRYVACKLHGLNAQWSEEKKQSYIRHANRECEIHKSLVHHHIVRLWDKFHIDMHTFCTVLEYCSGKDLDAVLKATSNLPEKEARIIIVQIVQGLVYLNKKSQKIIHYDLKPGNVLFDEFGVAKVTDFGLSKIVEDNVGSQGMELTSQGAGTYWYLPPECFELNKTPMISSKVDVWSVGVLFYQMLFGKRPFGHDQSQERILREDTIIKAKKVEFPVTRPAISNEAKDLIRRCLTYNQEDRPDVLTMAQDPYLAYSKK
# partner: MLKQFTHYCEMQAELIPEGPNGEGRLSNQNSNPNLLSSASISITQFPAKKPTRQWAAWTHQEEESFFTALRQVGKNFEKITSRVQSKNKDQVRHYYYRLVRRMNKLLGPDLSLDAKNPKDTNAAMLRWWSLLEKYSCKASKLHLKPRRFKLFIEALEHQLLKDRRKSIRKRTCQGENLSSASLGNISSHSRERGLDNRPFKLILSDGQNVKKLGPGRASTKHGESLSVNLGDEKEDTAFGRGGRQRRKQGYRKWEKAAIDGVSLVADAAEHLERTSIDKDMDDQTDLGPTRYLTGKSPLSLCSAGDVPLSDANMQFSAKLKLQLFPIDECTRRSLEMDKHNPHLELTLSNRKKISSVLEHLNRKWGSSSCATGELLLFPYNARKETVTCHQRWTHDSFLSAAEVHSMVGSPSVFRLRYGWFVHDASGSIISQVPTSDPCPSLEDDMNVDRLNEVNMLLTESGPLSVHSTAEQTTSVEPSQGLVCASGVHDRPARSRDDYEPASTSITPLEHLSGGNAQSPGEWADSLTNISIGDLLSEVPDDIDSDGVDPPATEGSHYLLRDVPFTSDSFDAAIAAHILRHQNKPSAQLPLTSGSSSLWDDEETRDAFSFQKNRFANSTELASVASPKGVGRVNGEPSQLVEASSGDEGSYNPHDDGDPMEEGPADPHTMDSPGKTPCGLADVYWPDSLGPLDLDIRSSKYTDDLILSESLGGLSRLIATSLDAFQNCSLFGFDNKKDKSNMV
# B2: Serine/threonine-protein kinase TOUSLED (Arabidopsis thaliana (Mouse-ear cress)), Q39238 (parent)
# chain: B1 chain
# partner: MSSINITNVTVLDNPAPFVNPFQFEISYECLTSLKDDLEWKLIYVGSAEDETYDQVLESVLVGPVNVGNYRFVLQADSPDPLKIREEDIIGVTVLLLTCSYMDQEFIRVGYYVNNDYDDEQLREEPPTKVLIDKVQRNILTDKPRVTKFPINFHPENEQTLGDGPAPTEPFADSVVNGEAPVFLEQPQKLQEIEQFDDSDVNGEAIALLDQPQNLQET
# Variants of: B1
# Conditions: with tki1_arath TKI1, Q8LJT8
row,Variant,effect of a mutation on the interaction
1,K438E,disrupting interaction

# Variants of: B2
# Conditions: with asf1b_arath ASF1B
row,Variant,effect of a mutation on the interaction
1,K438E,disrupting interaction
